Experimental data taken from patent US20260241035A1, “FUNCTIONAL NUCLEIC ACID MOLECULE AND METHOD” (THE UNIVERSITY COURT OF THE UNIVERSITY OF EDINBURGH, priority 2022, published 2026).

Test system: GSC7 cells
Assay: Nano-Glo Dual-Luciferase Reporter (Nanoglo DLR) assay of enhancer activity, fold change to mCMV
Assay type: cell-based, human
Conditions: expression fold change of the individual enhancer compared to mCMV
Method in brief: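 160 bp enhancer fragments in NanoLuc reporter plasmids were co-transfected 1:10 with PGK-firefly luciferase into GSC7 cells using Lipofectamine LTX/Plus and read two days later. NanoLuc signal was normalised to firefly, then expressed as fold change to the empty mCMV vector.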

B1: ID1101: enhancer fragment, SEQ ID NO: 4 (nucleic acid)
DNA: GTGAGTGTGACTCACATGCTGGCATCAGAGCCCCTCTTAGAGCTTAGAACACTGGGCCTCTGTCAGGCAAAGAAAAGGAGTCCCTATGAATAGCCATCTCCACAAATAGCAGTTACTGTCACTTCTTAAAAGACACAAGCATGGCTGGAGACCGGCACTG
- Fold change (Median): 258.8 fold
